According to patent US20200262877A1, “ION CHANNEL-BINDING PEPTIDES AND METHODS OF USE THEREOF” (priority 2017, published 2020):

Tests used:
[1] = biological target: T1, 5HT3a (Homo sapiens, UniProt P46098); test: Ion channel panel (IonWorks Barracuda): 5HT3a; type: cell-based
T1 construct: host or cells: HEK293 or CHO
T1 sequence (P46098 whole entry, looked up): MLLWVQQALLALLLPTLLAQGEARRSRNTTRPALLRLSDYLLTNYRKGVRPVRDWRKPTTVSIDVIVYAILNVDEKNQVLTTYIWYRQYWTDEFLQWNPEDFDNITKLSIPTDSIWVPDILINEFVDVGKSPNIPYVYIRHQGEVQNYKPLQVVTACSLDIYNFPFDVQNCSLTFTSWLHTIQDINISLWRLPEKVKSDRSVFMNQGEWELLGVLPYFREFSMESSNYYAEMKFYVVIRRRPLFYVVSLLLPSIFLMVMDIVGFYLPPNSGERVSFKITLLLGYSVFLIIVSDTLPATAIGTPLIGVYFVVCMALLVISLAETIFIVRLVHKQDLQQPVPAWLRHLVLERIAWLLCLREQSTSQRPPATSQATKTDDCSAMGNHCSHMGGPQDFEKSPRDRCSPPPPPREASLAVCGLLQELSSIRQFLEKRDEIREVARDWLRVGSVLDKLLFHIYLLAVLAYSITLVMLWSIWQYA
Outline: (§1)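 Transfected HEK293 or CHO cells were exposed for at least 5 min to peptides at 200 nM and 20 μM final, tested in duplicate, in HEPES-buffered physiological saline. Activation was taken as peptide-plus-agonist current over control current ×100, and inhibition as 1 minus that ratio ×100. Each channel's control was its own reference compound.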

[2] = biological target: T2, α3β4 (Homo sapiens, UniProt P30926+P32297); test: Ion channel panel (IonWorks Barracuda): α3β4; type: cell-based; conditions: 100% = no change, <100% = inhibition
T2 construct: host or cells: HEK293 or CHO
Outline: as §1

[3] = biological target: T3, α4β2 (Homo sapiens, UniProt P17787+P43681); test: Ion channel panel (IonWorks Barracuda): α4β2; type: cell-based; conditions: 100% = no change, <100% = inhibition
T3 construct: host or cells: HEK293 or CHO
Outline: as §1

[4] = biological target: T4, Cav2.1 (Homo sapiens, UniProt O00555); test: cell-based; conditions: 100% = no change, <100% = inhibition
T4 construct: host or cells: HEK293 or CHO
Outline: as §1

[5] = biological target: T5, Cav2.2 (Homo sapiens, UniProt Q00975); test: cell-based; conditions: 100% = no change, <100% = inhibition
T5 construct: host or cells: HEK293 or CHO
Outline: as §1

[6] = biological target: T6, Kv2.1 (Homo sapiens, UniProt Q14721); test: cell-based; conditions: 100% = no change, <100% = inhibition
T6 construct: host or cells: HEK293 or CHO
Outline: as §1

[7] = tested on: GABA; test: Ion channel panel (IonWorks Barracuda): GABA; type: cell-based; conditions: 100% = no change, <100% = inhibition
Outline: as §1

[8] = biological target: Nav1.5 (Homo sapiens, UniProt Q14524); test: in vitro; conditions: 100% = no change; for Activity of Nav1.5 with peptide, expressed as a percentage of the reference compound: peptide at 0.2 μM; for Activity of Nav1.5 with peptide (percentage of the reference compound): peptide at 20 μM
Outline: as §1

[9] = biological target: hERG (Homo sapiens, UniProt Q12809); test: in vitro; conditions: 100% = no change, <100% = inhibition
Outline: as §1

[10] = biological target: T7, Kir2.1 (Homo sapiens, UniProt P63252); test: Ion channel panel (IonWorks Barracuda): Kir2.1; type: cell-based; conditions: 100% = no change, <100% = inhibition
T7 construct: host or cells: HEK293 or CHO
Outline: as §1

[11] = biological target: T8, Kv1.1 (Homo sapiens, UniProt Q09470); test: cell-based; type: cell-based; conditions: 100% = no change, <100% = inhibition
T8 construct: host or cells: HEK293 or CHO
Outline: as §1

[12] = biological target: T9, Kv1.2 (Homo sapiens, UniProt P16389); test: cell-based; type: cell-based; conditions: 100% = no change, <100% = inhibition
T9 construct: host or cells: HEK293 or CHO
Outline: as §1

[13] = biological target: T10, Kv1.3 (Homo sapiens, UniProt P22001); test: cell-based; type: cell-based; conditions: 100% = no change, <100% = inhibition
T10 construct: host or cells: HEK293 or CHO
Outline: as §1

[14] = biological target: T11, Nav1.7 (Homo sapiens, UniProt Q15858); test: cell-based; type: cell-based; conditions: 100% = no change; for Activity of Nav1.7 with peptide, expressed as a percentage of the reference compound: peptide at 0.2 μM; for Activity of Nav1.7 with peptide (percentage of the reference compound): peptide at 20 μM
T11 construct: host or cells: HEK293 or CHO

[15] = biological target: T12, NR2A (Homo sapiens, UniProt Q12879); test: Ion channel panel (IonWorks Barracuda): NR2A; type: cell-based; conditions: 100% = no change, <100% = inhibition
T12 construct: host or cells: HEK293 or CHO
Outline: as §1

[16] = biological target: T13, NR2B (Homo sapiens, UniProt Q13224); test: Ion channel panel (IonWorks Barracuda): NR2B; type: cell-based; conditions: 100% = no change, <100% = inhibition
T13 construct: host or cells: HEK293 or CHO
Outline: as §1

[17] = biological target: T14, TRPA1 (Homo sapiens, UniProt O75762); test: Ion channel panel (IonWorks Barracuda): TRPA1; type: cell-based; conditions: 100% = no change, <100% = inhibition
T14 construct: host or cells: HEK293 or CHO
Outline: as §1

[18] = biological target: T15, TRPV1 (Homo sapiens, UniProt Q8NER1); test: Ion channel panel (IonWorks Barracuda): TRPV1; type: cell-based; conditions: 100% = no change, <100% = inhibition
T15 construct: host or cells: HEK293 or CHO
Outline: as §1

[19] = tested on: panel of 20 ion channels; type: cell-based; conditions: potassium channels of the panel; 0.2 or 20 μM; FIG. 2
Protocol: This example describes a method for assaying ion channel activity in cells.
Peptides were screened in duplicate at final concentrations of 20 μM and 200 nM, as determined by amino acid analysis, and diluted into HEPES buffered physiological saline (HBPS). HEK293 or CHO cells from the American Type Culture Collection (ATCC) were transfected with the appropriate ion channel before use. HEK293 cells were grown in Dulbecco's Modified Eagle Medium/Nutrient Mixture F-12, and CHO cells were cultured in Ham's F-12 media. All cultures were supplemented with 10% fetal bovine serum, 100 U/ml penicillin G, 100 μg/ml streptomycin sulfate, and the appropriate selection antibiotics. Prior to use, cells were washed twice with Hank's Balanced Salt Solution, and treated with Accutase cell detachment solution (Sigma-Aldrich). Cells were then washed. Peptides and controls were incubated with cells for at least five minutes.
Percent inhibition was defined as: (1-(Ipeptide/Icontrol))×100%).
Percent values were calculated using the following formula: % activation=(IPeptide/Icontrol)×100%, where IPeptide is the current produced by co-application a peptide with agonist, and Icontrol refers to the current produced by stimulation in control. Control used for each ion channel is the reference compound matched to a particular channel, as illustrated in TABLE 10 below.

[20] = first of two Nav1.5 columns (probably TP1)
[21] = second of two Nav1.5 columns (probably TP2)
[22] = first of two Nav1.7 columns (probably TP1)
[23] = second of two Nav1.7 columns (probably TP2)

T11 sequence (Q15858 whole entry): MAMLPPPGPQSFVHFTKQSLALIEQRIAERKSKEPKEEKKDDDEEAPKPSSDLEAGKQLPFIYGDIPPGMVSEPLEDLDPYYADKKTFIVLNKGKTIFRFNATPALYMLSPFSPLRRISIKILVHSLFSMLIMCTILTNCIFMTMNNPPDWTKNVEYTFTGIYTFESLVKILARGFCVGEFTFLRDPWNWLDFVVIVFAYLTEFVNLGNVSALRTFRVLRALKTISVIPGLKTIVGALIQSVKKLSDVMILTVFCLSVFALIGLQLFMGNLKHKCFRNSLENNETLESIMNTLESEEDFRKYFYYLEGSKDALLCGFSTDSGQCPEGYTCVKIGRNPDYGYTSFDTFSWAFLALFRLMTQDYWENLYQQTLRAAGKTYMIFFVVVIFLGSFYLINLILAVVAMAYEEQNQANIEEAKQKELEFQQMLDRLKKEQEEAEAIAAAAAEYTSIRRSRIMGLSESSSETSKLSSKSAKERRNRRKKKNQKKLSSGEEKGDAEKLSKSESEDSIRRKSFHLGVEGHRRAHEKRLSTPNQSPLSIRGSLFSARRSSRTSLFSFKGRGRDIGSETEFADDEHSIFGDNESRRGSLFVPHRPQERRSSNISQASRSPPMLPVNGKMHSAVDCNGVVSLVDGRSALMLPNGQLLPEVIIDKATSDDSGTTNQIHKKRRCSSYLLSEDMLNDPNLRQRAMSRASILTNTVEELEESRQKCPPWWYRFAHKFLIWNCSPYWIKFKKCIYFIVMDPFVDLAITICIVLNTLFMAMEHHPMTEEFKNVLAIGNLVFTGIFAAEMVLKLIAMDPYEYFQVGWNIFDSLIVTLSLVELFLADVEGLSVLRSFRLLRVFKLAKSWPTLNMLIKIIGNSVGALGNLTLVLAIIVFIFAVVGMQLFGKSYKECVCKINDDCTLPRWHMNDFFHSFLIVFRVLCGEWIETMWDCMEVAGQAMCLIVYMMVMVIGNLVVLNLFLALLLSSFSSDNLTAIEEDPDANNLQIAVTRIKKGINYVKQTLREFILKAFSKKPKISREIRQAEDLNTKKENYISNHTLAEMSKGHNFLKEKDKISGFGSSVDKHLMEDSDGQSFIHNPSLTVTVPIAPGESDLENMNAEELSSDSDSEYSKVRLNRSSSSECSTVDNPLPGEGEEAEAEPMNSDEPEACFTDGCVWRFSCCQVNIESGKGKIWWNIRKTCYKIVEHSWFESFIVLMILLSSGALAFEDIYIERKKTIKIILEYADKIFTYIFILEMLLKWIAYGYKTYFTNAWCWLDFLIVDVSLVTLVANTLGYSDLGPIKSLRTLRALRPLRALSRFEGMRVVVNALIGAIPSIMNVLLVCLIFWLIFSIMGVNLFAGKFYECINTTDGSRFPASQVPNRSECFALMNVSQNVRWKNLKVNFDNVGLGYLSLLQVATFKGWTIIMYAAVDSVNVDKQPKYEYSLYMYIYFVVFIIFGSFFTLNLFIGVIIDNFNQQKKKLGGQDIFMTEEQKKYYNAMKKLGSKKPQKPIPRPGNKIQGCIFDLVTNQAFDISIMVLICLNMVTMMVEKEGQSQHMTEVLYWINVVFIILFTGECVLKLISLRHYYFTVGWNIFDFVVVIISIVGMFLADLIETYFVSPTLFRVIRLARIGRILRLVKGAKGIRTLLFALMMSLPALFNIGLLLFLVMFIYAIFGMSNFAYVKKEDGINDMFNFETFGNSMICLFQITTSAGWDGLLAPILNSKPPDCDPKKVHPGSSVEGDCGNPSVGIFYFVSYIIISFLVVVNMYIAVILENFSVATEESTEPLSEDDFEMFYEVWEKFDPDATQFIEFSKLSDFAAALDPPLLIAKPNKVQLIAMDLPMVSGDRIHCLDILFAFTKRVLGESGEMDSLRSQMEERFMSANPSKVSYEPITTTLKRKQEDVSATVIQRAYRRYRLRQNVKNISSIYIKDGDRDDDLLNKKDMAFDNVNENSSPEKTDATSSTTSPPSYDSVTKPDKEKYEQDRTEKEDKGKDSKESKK
Nav1.5, sequence (Q14524 whole entry): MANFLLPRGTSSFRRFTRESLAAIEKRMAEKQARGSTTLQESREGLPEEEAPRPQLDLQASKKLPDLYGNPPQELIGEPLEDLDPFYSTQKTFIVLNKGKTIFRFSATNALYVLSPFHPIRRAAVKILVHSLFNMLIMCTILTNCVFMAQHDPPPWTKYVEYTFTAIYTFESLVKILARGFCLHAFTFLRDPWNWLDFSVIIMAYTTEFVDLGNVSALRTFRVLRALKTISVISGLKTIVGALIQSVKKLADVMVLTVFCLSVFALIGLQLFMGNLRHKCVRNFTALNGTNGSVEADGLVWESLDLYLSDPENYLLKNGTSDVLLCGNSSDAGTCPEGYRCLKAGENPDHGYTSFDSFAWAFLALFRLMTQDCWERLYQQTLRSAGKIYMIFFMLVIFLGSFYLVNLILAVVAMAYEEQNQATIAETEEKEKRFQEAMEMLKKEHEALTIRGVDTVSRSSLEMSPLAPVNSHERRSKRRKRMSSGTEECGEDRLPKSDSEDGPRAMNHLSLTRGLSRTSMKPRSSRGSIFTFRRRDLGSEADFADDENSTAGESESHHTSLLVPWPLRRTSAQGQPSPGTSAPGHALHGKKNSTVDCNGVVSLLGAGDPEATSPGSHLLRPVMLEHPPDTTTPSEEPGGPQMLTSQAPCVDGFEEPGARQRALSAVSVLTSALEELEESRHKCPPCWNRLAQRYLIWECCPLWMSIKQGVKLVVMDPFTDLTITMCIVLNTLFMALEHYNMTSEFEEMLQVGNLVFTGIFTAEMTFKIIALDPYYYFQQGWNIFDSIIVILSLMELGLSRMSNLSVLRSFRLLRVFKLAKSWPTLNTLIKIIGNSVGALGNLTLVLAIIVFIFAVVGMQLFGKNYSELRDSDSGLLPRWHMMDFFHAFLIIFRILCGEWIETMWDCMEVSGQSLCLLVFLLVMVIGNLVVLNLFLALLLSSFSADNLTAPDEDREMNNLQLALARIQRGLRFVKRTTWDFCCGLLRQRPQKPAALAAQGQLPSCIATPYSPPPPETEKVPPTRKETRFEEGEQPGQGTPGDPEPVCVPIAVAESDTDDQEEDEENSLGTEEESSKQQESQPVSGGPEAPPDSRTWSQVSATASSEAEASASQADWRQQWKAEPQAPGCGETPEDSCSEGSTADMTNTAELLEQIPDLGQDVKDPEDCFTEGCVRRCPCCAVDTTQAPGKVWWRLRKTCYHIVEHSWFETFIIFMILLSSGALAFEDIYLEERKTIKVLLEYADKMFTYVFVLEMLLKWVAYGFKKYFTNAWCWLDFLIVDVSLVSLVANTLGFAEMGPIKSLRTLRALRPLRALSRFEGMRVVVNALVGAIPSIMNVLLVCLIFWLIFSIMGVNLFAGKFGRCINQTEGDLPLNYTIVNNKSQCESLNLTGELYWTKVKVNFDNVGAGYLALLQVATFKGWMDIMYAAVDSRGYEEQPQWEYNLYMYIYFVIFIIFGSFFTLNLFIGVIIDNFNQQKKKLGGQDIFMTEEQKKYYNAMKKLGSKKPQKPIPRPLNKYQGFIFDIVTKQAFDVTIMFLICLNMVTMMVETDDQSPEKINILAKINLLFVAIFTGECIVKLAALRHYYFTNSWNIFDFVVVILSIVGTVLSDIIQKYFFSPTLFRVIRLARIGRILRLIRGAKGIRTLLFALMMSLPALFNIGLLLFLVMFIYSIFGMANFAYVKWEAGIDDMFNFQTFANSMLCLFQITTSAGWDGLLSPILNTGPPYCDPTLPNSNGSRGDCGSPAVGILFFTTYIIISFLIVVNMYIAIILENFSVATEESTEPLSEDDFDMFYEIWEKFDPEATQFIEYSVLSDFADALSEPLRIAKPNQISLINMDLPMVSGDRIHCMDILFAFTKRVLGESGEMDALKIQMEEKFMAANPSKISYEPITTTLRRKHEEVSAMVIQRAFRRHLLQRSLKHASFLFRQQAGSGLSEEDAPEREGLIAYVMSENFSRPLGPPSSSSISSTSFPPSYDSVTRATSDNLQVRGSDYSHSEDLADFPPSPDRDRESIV
T7 sequence (P63252 whole entry): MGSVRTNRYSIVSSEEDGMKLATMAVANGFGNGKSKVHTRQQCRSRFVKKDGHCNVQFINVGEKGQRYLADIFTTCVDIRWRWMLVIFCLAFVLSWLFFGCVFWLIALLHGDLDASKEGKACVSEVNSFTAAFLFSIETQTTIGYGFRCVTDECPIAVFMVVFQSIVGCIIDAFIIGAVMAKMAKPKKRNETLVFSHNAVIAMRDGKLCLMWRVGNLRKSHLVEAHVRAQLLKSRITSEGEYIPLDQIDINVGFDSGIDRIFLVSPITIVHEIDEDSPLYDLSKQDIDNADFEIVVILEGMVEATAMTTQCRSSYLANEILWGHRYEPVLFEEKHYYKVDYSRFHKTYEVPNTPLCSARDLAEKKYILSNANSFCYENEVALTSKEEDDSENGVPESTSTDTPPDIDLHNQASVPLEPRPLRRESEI
T10 sequence (P22001 whole entry): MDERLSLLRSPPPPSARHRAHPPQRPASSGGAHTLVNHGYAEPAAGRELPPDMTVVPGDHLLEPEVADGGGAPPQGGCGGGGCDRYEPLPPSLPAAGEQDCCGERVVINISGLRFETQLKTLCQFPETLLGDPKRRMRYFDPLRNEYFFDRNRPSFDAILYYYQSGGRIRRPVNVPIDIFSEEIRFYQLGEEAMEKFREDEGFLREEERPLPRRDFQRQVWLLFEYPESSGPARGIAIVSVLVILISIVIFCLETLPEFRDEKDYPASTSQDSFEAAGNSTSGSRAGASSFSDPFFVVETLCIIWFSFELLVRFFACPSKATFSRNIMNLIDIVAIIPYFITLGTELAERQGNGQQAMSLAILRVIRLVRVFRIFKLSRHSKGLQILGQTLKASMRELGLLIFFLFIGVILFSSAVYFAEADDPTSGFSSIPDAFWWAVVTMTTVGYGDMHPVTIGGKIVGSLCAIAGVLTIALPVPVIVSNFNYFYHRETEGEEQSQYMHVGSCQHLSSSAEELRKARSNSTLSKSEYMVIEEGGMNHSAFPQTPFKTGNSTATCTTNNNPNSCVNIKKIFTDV

39 (GSGVPTDVKCRGSPQCIQPCKDAGMRFGKCMNGKCHCTPK) [compound 39]
Activity of 5HT3a with peptide (percentage of the reference compound) [1]: 55%
Activity of 5HT3a with peptide, expressed as a percentage of the reference compound [1]: 67%
Activity of a3b4 with peptide, expressed as a percentage of the reference compound ([2]; peptide at 0.2 μM): 99%
Activity of a3b4 with peptide (percentage of the reference compound) ([2]; peptide at 20 μM): 93%
Activity of a4b2 with peptide, expressed as a percentage of the reference compound ([3]; peptide at 0.2 μM): 98%
Activity of a4b2 with peptide (percentage of the reference compound) ([3]; peptide at 20 μM): 91%
Activity of Cav2.1 with peptide, expressed as a percentage of the reference compound ([4]; peptide at 0.2 μM): 96%
Activity of Cav2.1 with peptide (percentage of the reference compound) ([4]; peptide at 20 μM): 96%
Activity of Cav2.2 with peptide, expressed as a percentage of the reference compound ([5]; peptide at 0.2 μM): 117%
Activity of Cav2.2 with peptide (percentage of the reference compound) ([5]; peptide at 20 μM): 98%
Activity of Kv2.1 with peptide, expressed as a percentage of the reference compound ([6]; peptide at 0.2 μM): 118%
Activity of Kv2.1 with peptide (percentage of the reference compound) ([6]; peptide at 20 μM): 102%
Activity of GABA with peptide, expressed as a percentage of the reference compound ([7]; peptide at 0.2 μM): 111%
Activity of GABA with peptide (percentage of the reference compound) ([7]; peptide at 20 μM): 108%
Activity of Nav1.5 with peptide, expressed as a percentage of the reference compound [8, 20]: 108%
Activity of Nav1.5 with peptide, expressed as a percentage of the reference compound [8, 21]: 105%
Activity of Nav1.5 with peptide (percentage of the reference compound) [8, 20]: 111%
Activity of Nav1.5 with peptide (percentage of the reference compound) [8, 21]: 114%
Activity of hERG with peptide, expressed as a percentage of the reference compound ([9]; peptide at 0.2 μM): 103%
Activity of hERG with peptide (percentage of the reference compound) ([9]; peptide at 20 μM): 84%
Activity of Kir2.1 with peptide, expressed as a percentage of the reference compound ([10]; peptide at 0.2 μM): 110%
Activity of Kir2.1 with peptide (percentage of the reference compound) ([10]; peptide at 20 μM): 98%
Activity of Kv1.1 with peptide, expressed as a percentage of the reference compound ([11]; peptide at 0.2 μM): 37%
Activity of Kv1.1 with peptide (percentage of the reference compound) ([11]; peptide at 20 μM): 21%
Activity of Kv1.2 with peptide, expressed as a percentage of the reference compound ([12]; peptide at 0.2 μM): 96%
Activity of Kv1.2 with peptide (percentage of the reference compound) ([12]; peptide at 20 μM): 84%
Activity of Kv1.3 with peptide, expressed as a percentage of the reference compound ([13]; peptide at 0.2 μM): 7%
Activity of Kv1.3 with peptide (percentage of the reference compound) ([13]; peptide at 20 μM): 1%
Activity of Nav1.7 with peptide, expressed as a percentage of the reference compound [14, 22]: 42%
Activity of Nav1.7 with peptide, expressed as a percentage of the reference compound [14, 23]: 39%
Activity of Nav1.7 with peptide (percentage of the reference compound) [14, 22]: 108%
Activity of Nav1.7 with peptide (percentage of the reference compound) [14, 23]: 110%
Activity of NR2A with peptide, expressed as a percentage of the reference compound ([15]; peptide at 0.2 μM): 106%
Activity of NR2A with peptide (percentage of the reference compound) ([15]; peptide at 20 μM): 82%
Activity of NR2B with peptide, expressed as a percentage of the reference compound ([16]; peptide at 0.2 μM): 102%
Activity of NR2B with peptide (percentage of the reference compound) ([16]; peptide at 20 μM): 85%
Activity of TRPA1 with peptide, expressed as a percentage of the reference compound ([17]; peptide at 0.2 μM): 136%
Activity of TRPA1 with peptide (percentage of the reference compound) ([17]; peptide at 20 μM): 92%
Activity of TRPV1 with peptide, expressed as a percentage of the reference compound ([18]; peptide at 0.2 μM): 95%
Activity of TRPV1 with peptide (percentage of the reference compound) ([18]; peptide at 20 μM): 83%

GSQIDTNVKCSGSSKCVKICIDRYNTRGAKCINGRCTCYP [SEQ ID NO: 20]
Activity on potassium channels [19]: showed activity on various subsets of potassium channels
